This is an account of results in patent publication US20220332795A1.

Sequences and labels used below:
B1: SEQ ID NO 93 (designed binder, not shown: small tags and cut ends)
chain: MLPAPKNLVVSRVTEDSARLSWTAPDAAFDSFAIEYYEPVPAGEAIYLDVPGSERSYDLTGLKPGTEYDVTIYGVKGGYYSHPLFASFTT
B2: SEQ ID NO 78 (designed binder, not shown: small tags and cut ends)
chain: MLPAPKNLVVSRVTEDSARLSWTAPDAAFDSFGIGYYEHKRFGEAIQLSVPGSERSYDLTGLKPGTEYEVDIEGVKGGVLSWPLFAEFTT
B3: SEQ ID NO 87 (designed binder, not shown: small tags and cut ends)
chain: MLPAPKNLVVSRVTEDSARLSWTAPDAAFDSFAIEYTEFLYSGEAIVLTVPGSERSYDLTGLKPGTEYGVPINGVKGGFVSPPLSAIVTT
B4: SEQ ID NO 77 (designed binder, not shown: small tags and cut ends)
chain: MLPAPKNLVVSRVTEDSARLSWTAPDAAFDSFPIAYAEPRPDGEAIVLTVPGSERSYDLTGLKPGTEYSVLIHGVKGGLLSSPLSAIFTT
B5: SEQ ID NO 82 (designed binder, not shown: small tags and cut ends)
chain: MLPAPKNLVVSRVTEDSARLSWTAPDAAFDSFLIPYAETSPSGEAIVLTVPGSERSYDLTGLKPGTEYSVLIHGVKGGDYSSPLSAIFTT
B6: SEQ ID NO 83 (designed binder, not shown: small tags and cut ends)
chain: MLPAPKNLVVSRVTEDSARLSWTAPDAAFDSFPIAYAEPRPDGEAIVLTVPGSERSYDLTGLKPGTEYSVLIHGVKGGLLSSPLSAISTT
B7: SEQ ID NO 12 (designed binder, not shown: small tags and cut ends)
chain: MLPAPKNLVVSRVTEDSARLSWTAPDAAFDSFFIPYAEPSPTGEAIVLTVPGSERSYDLTGLKPGTEYSVLIHGVKGGHLSDPLSAISTT
B8: SEQ ID NO 99 (designed binder, not shown: small tags and cut ends)
chain: MLPAPKNLVVSRVTEDSARLSWTAPDAAFDSFFIPYAEPSPTGEAIVLTVPGSERSYDLTGLKPGTEYSVLIHGVKGGHLSDPLSVIFTT
B9: SEQ ID NO 80 (designed binder, not shown: small tags and cut ends)
chain: MLPAPKNLVVSRVTEDSARLSWTAPDAAFDSFWIDYEEEGVIGEAIYLHVPGSERSYDLTGLKPGTEYVVKIHGVKGGHPSHPLVAVFTT
B10: SEQ ID NO 97 (designed binder, not shown: small tags and cut ends)
chain: MLPAPKNLVVSRVTEDSARLSWTAPDAAFDSFHIWYEEETTIGEAIYLHVPGSERSYDLTGLKPGTEYEVHITGVKGGPYSRPLFANFTT
B11: SEQ ID NO 1 (designed binder, not shown: small tags and cut ends)
chain: MLPAPKNLVVSRVTEDSARLSWTAPDAAFDSFPITYIEAVVLGEAIVLTVPGSERSYDLTGLKPGTEYPVGISGVKGGHNSMPLSAIFTT
B12: SEQ ID NO 19 (designed binder, not shown: small tags and cut ends)
chain: MLPAPKNLVVSRVTEDSARLSWTAPDAAFDSFAITYTEAALCGEAIVLTVPGSERSYDLTGLKPGTEYPVPINGVKGGGTSGPLSAIFTT
B13: SEQ ID NO 71 (designed binder, not shown: small tags and cut ends)
chain: MLPAPKNLVVSRVTEDSARLSWTAPDAAFDSFPISYLELSLYGEAIVLTVPGSERSYDLTGLKPGTEYPVGIAGVKGGVVSRPLSAIFTT
B14: SEQ ID NO 2 (designed binder, not shown: small tags and cut ends)
chain: MLPAPKNLVVSEVTEDSARLSWQGVARAFDSFMINYSELFWMGEAIVLTVPGSERSYDLTGLKPGTEYVVRIKGVKGGKGSWPLHAHFTT
B15: SEQ ID NO 20 (designed binder, not shown: small tags and cut ends)
chain: MLPAPKNLVVARVTEDSARLSWTAPDAAIDSFPIDYSEYWWGGEAIVLTVPGSERSYDLTGLKPGTEYPVLITGVKGGYRSGPLSAIFTT
B16: SEQ ID NO 88 (designed binder, not shown: small tags and cut ends)
chain: MLPAPKNLVVSRVTEDSARLSWTAPDAAFDSFPIKYREVLRCGEAIVLTVPGSERSYDLTGLKPGTEYTVPITGVKGGFGSSPLSAIFTT
B17: SEQ ID NO 17 (designed binder, not shown: small tags and cut ends)
chain: MLPAPKNLVVSRVTEDSARLSWTAPDAAFDSFPILYTECVYRGEAIVLTVPGSERSYDLTGLKPGTEYHVPITGVKGGGGSWPLSAIFTT
B18: SEQ ID NO 18 (designed binder, not shown: small tags and cut ends)
chain: MLPAPKNLVVSRVTEDSARLSWTAPDAAFDSFNIMYHEIIYVGEAIVLTVPGSERSYDLTGLKPGTEYPVPIEGVKGGGTSGPLSAIFTT
B19: SEQ ID NO 89 (designed binder, not shown: small tags and cut ends)
chain: MLPAPENLVVSRVTEDSARLSWTAPDAAFDSFWIEYYEGVIQGEAIVLTVPGSERSYDLTGLKPGTEYFVAIWGVKGGKWSVPLSAIFTT
B20: SEQ ID NO 72 (designed binder, not shown: small tags and cut ends)
chain: MLPAPKNLVVSRVTEDSARLSWTAPDAAFDSFTIGYREWYWYGEAIVLTVPGSERSYDLTGLKPGTEYNVPISGVKGGLDSFPLSAIFTT
B21: SEQ ID NO 90 (designed binder, not shown: small tags and cut ends)
chain: MLPAPKNLVVSRVTEDSARLSWQGVARAFDSFLITYREQIFAGEVIVLTVPGSERSYDLTGLKPGTEYPVWIQGVKGGSPSAEFTT
B22: SEQ ID NO 10 (designed binder, not shown: small tags and cut ends)
chain: MLPAPKNLVVSRVTEDSARLSWTAPDAAFDSFKIAYIETATRGEAIVLTVPGSERSYDLTGLKPGTEYVVPIPGVKGGNTSSPLSAIFTT
B23: SEQ ID NO 13 (designed binder, not shown: small tags and cut ends)
chain: MLPAPKNLVVSRVTEDSARLSWTAPDAAFDSFLIAYPEDGFRGEAIVLTVPGSERSYDLTGLKPGTEYPVPILGVKGGGGSGPLSAIFTT
B24: SEQ ID NO 7 (designed binder, not shown: small tags and cut ends)
chain: MLPAPKNLVVSDVTEDSARLSWQGVARAFDSFLITYREQIFAGEVIVLTVPGSERSYDLTGLKPGTEYPVWIQGVKGGSPSAPLSAEFTT
B25: SEQ ID NO 70 (designed binder, not shown: small tags and cut ends)
chain: MLPAPKNLVVSRVTEDSARLSWQGVARAFDSFLITYREQIFAGEVIVLTVPGSERSYDLTGLKPGTEYPVWIQGVKGGDLSNPLSAIFTT
B26: SEQ ID NO 94 (designed binder, not shown: small tags and cut ends)
chain: MLPAPKNLVVSEVTEDSARLSWQGVARAFDSFLITYREQIFAGEVIVLTVPGSERSYDLTGLKPGTEYPVWIQGVKGGSPSAPLSAIFTT
B27: SEQ ID NO 15 (designed binder, not shown: small tags and cut ends)
chain: MLPAPKNLVVSRVTEDSARLSWQGVARAFDSFLITYREQIFAGEVIVLTVPGSERSYDLTGLKPGTECPVWIQGVKGGSPSAPLSAEFTT
B28: SEQ ID NO 81 (designed binder, not shown: small tags and cut ends)
chain: MLPAPKNLVVSRVTEDSARLSWQGVARAFDSFLITYVELRHLGEAIVLTVPGSERSYDLTGLKPGTEYPVWIQGVKGGSPSAPLSAEFTT
B29: SEQ ID NO 73 (designed binder, not shown: small tags and cut ends)
chain: MLPAPKNLVVSEVTEDSARLSWQGVARAFDSFLITYREQIFAGEVIVLTVPGSERSYDLTGLKPGTEYPVWIQGVKGGSPSAPLSAESTT
B30: SEQ ID NO 84 (designed binder, not shown: small tags and cut ends)
chain: MLPAPKNLVVSRVTEDSARLSWQGVARAFDSFSILYLELTPKGEAIVLTVPGSERSYDLTGLKPGTEYPVWIQGVKGGSPSAPLSAEFTT
B31: SEQ ID NO 102 (designed binder, not shown: small tags and cut ends)
chain: MLPAPKNLVVSRVTEDSARLSWQGVARAFDSFLITYREQIFAGEVIVLTVPGSERSYDLTGLKPGTEYPVWIQGVKGGSPSAPLSAEFTT
B32: SEQ ID NO 21 (designed binder, not shown: small tags and cut ends)
chain: MLPAPKNLVVSRVTEDSARLSWTAPDAAFDSFSIRYNEFIVAGEAIVLTVPGSERSYDLTGLKPGTEYDVPIAGVKGGGASWPLSAIVTT
B33: SEQ ID NO 76 (designed binder, not shown: small tags and cut ends)
chain: MLPAPKNLVVSRVTEDSARLSWTAPDAAFDSFTIEYYENIGIGEAIVLTVPGSERSYDLTGLKPGTEYSVPIVGVKGGPYSHPLSAIFTT
B34: SEQ ID NO 85 (designed binder, not shown: small tags and cut ends)
chain: MLPAPKNLVVSRVTEDSARLSWTAPDAAFDSFIIEYFEPIPIGEAIVLTVPGSERSYDLTGLKPGTEYAVNIYGVKGGYLSHPLSAIFTT
B35: SEQ ID NO 79 (designed binder, not shown: small tags and cut ends)
chain: MLPAPKNLVVSRVTEDSARLSWTAPDAAFDSFVIEYTERFWSGEAIVLTVPGSERSYDLTGLKPGTEYSVPIDGVKGGQCSTPLSAIFTT
B36: SEQ ID NO 75 (designed binder, not shown: small tags and cut ends)
chain: MLPAPKNLVVSRVTEDSARLSWTAPDAAFDSFTISYGEEALIGEAIYLRVPGSERSYDLTGLKPGTEYYVHIEGVKGGSWSQPLAAAFTT
B37: SEQ ID NO 74 (designed binder, not shown: small tags and cut ends)
chain: MLPAPKNLVVSRVTEDSARLSWTAPDAAFDSFSITYLEWWNLGEAIVLTVPGSERSYDLTGLKPGTEYMVTIPGVKGGMSSYPLSAIFTT
B38: SEQ ID NO 100 (designed binder, not shown: small tags and cut ends)
chain: MLPAPKNLVVSRVTEDSARLSWTAPDAAFDSFYIWYEEVMYLGEAIVLTVPGSERSYDLTGLKPGTEYNVPIPGVKGGHSSPPLSAIFTT
B39: SEQ ID NO 96 (designed binder, not shown: small tags and cut ends)
chain: MSLPAPKNLVVSRVTEDSARLSWTAPDAAFDSFPIAYLEVFYEGEAIVLTVPGSERSYDLTGLKPGTEYQVPIEGVKGGAMSLPLSAIFTT

The target in the experiment is human serum albumin (human) (UniProt P02768). Nature of the experiment: primary solution ELISA screen. (In general: In an ELISA, binding on a coated surface is turned into a signal by an enzyme label.)
Sequence of human serum albumin (human) (P02768 25-609 limits assumed): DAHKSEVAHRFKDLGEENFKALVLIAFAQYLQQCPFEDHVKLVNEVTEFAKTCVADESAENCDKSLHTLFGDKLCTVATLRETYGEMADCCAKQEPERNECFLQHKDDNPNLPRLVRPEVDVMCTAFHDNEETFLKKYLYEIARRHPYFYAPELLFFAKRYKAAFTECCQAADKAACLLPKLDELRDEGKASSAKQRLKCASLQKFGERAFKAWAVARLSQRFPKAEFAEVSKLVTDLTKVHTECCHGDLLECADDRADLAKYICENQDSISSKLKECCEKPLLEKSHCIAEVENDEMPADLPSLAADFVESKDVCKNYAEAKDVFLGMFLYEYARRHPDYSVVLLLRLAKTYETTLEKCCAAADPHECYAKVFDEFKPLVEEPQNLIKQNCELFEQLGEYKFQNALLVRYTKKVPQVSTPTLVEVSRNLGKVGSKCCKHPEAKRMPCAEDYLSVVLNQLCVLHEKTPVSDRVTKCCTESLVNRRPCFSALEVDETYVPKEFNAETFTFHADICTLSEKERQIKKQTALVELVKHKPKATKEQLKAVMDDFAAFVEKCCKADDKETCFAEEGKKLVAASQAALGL
B1: the RLU was 4750 RLU.
B2 registered an RLU of 9350 RLU.
The result for B3 reads 3650 RLU; that for B4, 10400 RLU.
As for B5, the figure is 14800 RLU.
As for B6, the figure is 111000 RLU; as for B7, 49000 RLU; as for B8, 9850 RLU.
B9: the RLU came out at 33600 RLU.
As for B10, the figure is 6500 RLU; as for B11, 15800 RLU.
Molecule B12 showed an RLU of 17900 RLU.
As to B13, the RLU amounted to 27500 RLU.
Consider B14, for which the RLU was found to be 28400 RLU.
The result for B15 reads 18400 RLU; that for B16, 24200 RLU.
For B17, the RLU was found to be 3650 RLU.
As for B18, the figure is 10400 RLU.
As for B19, the figure is 6500 RLU; as for B20, 8950 RLU; as for B21, 12400 RLU.
The result for B22 reads 29300 RLU; that for B23, 24600 RLU; that for B24, 26100 RLU.
B25 registered an RLU of 94800 RLU.
The molecule B26 showed an RLU of 87200 RLU.
Take B27: the RLU amounted to 14400 RLU.
As for B28, the figure is 9850 RLU.
As for B29, the figure is 20200 RLU; as for B30, 127000 RLU; as for B31, 39700 RLU.
The result for B32 reads 6850 RLU; that for B33, 16300 RLU.
Regarding B34, the RLU was determined as 6350 RLU.
With B35, the RLU worked out at 6000 RLU.
In the case of B36, the RLU is 3700 RLU.
Take B37: the RLU was determined as 14600 RLU.
B38 came in with an RLU of 5150 RLU.
As for B39, the figure is 15200 RLU.
